Measurements: a protein production outcome set (Wang et al. 2014)

Assay: label from the status in PepcDB records

| Sequence | protein production |
| --- | --- |
| MDFDLSEEQRLLKESVEGLLKGSYDFDSRKKYAKEKGGWSRAVWGKFAEQGLLGLPFSEEDGGFGAGAVETMIVMEALGHSLVLEPYLPTVVIGGGFLRRAGSAAQKAAHLPGIIDGSKTFAFAQLEKNSRWDLGDVSTTAKKSGDGWVIDGEKFVVLNGEAADTLIVTARTKGGQRDRTGVGVFLVPADAKGITRKGYPTQDGLHAADITFTGVQVGADAAIGDPENALELIEAVVDDARTALCAEAVGLMDESLTTTVEYIKTRKQFGVPIGSFQVLQHRAADMFVATEQARSMAMFATMAAEFDDAKERAGAIAAAKVQIGKSGKFVGQQSIQLHGGIGMTMEAKIGHYFKRLTMIEQTFGDTDHHLARVSAGGGLI | not failed |
| MDFFFVEYRDPLVGLIILTILVFVVAVANYIWKIFANKDEEQKLEKFIKKFEMDNAHKELLRNSSLSFGNLSFLAEIFTKSGEFEKATQIYLIALEKCKDKQEREFIFLSLAKVYFKAGFLERAKEVLLQALKLRPRNIQALKLLKIVYLKLRSYKENLELLECLFELNEDVQKERDFIKALELCTFNITDEEKKKKLLEFKIEDNPMLGRLVFEKYHMFLGQNFFDICDLLYRENEAFNLENQDFLEFFYALGKISKHDDTHQFVFKNSNFKMLKILKDNSFNAGLEFSYRCSECKNVMPLFFYHCPVCYEFNTCKIIYEVKNNETH | failed |
| MDFFTDQVKKKFSDKKPESSDPEPNHNKNKPGHTEPTTHKPGHGEPTTHKPVSNTDPTTHRPATNAELMASAKIVAEAAQAAARHESDKLDKAKVAGATADILDAASRYGKLDEKSGVGQYLEKAEQYLHKYETSHSHSSTGGTGSHGNVGGHGGGAGAPAAKKEDEKSGGGHGFGDYAKMAQGFMK | failed |
| MDFPQHSQHVLEQLNQQRQLGLLCDCTFVVDGVHFKAHKAVLAACSEYFKMLFVDQKDVVHLDISNAAGLGQVLEFMYTAKLSLSPENVDDVLAVATFLQMQDIITACHALKSLAEPATSPGGNAEALATEGGDKRAKEEKVATSTLSRLEQAGRSTPIGPSRDLKEER | failed |
| MDFRALALSLLLWLVPLWACANDQLDKLTQQVYQYPTKALAQITELEKQQQTDNTSNIDKLRLSILKCQNLLQLGENEAAINLAQMGEAHAKQLKLDQARPYFFNCQADAYLNYDNIQDALPLLDSAITLARRYQQPQALIDALRLRGQLDTNTDNFSSAIEDLRIAIDIYPDIHTQTQNWIWPPEAVGSPHNS | failed |
| MDFSDLDYSDAGDSGWTMYLGHSSSVSLHHFDYHNGETKQEHDEDSSMVSDASSGPPYYCEETVHEDHLQQNTQYWCKSKSKNKNKNKKKVHEEQGYSERFNSSFDDTASSLEKVNSGFLQQAFPVDKLALDNQGGDNQRKRRG | failed |
| MDFSLTEEQELLLASIRELITSNFPEEYFRTCDQTGTYPKEFMQALAENGISMLGVPEEFGGIPADYVTQMLALMEISKCGAPAFLITNGQCIHSMRRFGSAEQLRKTAESTLATGDPAYALALTEPGAGSDNNSATTTWTRKNGKVYLNGQKTFITGAKEYPYMLVLARDTEPKDPKKAFTLWWVDSNKPGIKINPLHKIGWHMLSTCEVYLDNVEVDESDRVGEEGMGFLNVMYNFEMERLINAARSTGFAECAFEDAARYANQRIAFGKPIGHNQMIQEKLALMAIKIENMRNMVLKVAWQADREESLRTSAALAKLYCARTAMEVIDDAIQIMGGLGYTDEARVSRFWRDVRCERIGGGTDEIMIYVAGRQILKDYQNK | failed |
| MDGEIDADELRSKLDEETVRVVDIRSPGAFERGHIPESENVPFPSLVDEVERFEGDDEVVTVCPKGKSSVQAARLIASYEGFDGDVVSFAPGLNGWDGPLERAEDEETPADTAAADRDSDEGPAAPF | failed |
| MDGRPLNRTTRAVAMIAVTIPAHNEQALIGPCLQSIRVAAQHPALQGEAVEIHVALDRCTDQTGVIARAHGAITQEVCGGVGVARAAAASAAIARGAHWLACTDADTRVPPDWLMAQLACAADAFCGVVEVTDWRDHLSQTRAAFLASEIRHDGHPHVHGANLGMRTSAYLAAGGFSNASSSEDVALVAALEQAGMRIARLASPVVNTSARRSARASGGFADYLLRLEAALLAASPSLGLEHHHHHH | failed |
| MDGSFVQHSVRVLQELNKQREKGQYCDATLDVGGLVFKAHWSVLACCSHFFQRIYGDGTGGSVVLPAGFAEIFGLLLDFFYTGHLALTSGNRDQVLLAAKELRVPEAVELCQSFQPQTSVGQAQSGLGQPASQDVKSHLKEPTDLDEEEVFKTLSLASVDQEPRDTEQPQLGTPAQSSTAFLCGKLTQALKPSPSEDKESEDCKEPPRPFEAGGAPLQGESNEWEVVVQVEDDRDGDYVSEPETVLTRRKSKVIRKPCAAEPALGAGSLTAEPTDSRKGAAVPVECPTCHKKFLSKYYLKVHNRKHTGEKPFECPKCGKCYFRKENLLEHEARNCMNRSEQVFTCSVCQETFRRRMELRLHMVSHTGEMPYKCSSCSQQFMQKKDLQSHMIKLHGAPKPHAVSASQGWGSGGSGTAQSCPHLDVLPLPVSPTCSAPLVPSASCLGRSYSCTRLLSIVEKSSLCVRNAGTGPRAATGCRCTSRPSTGMKGLMSVSSAAMPSPRRPTSTCTCARTPARSLSSATSVGRPSAPKFGQAQPHPHGREAFQL | not failed |
| MDGVLKGFFVVSIVLLIGYILGKTKALGPEGSKVLSTLTFMVGLPCLMFSAIASRHINDVLSATGLISVVTAVAVMLVFTVAGTIARWGVRRTTIGALSVGIVNSTNLGVPLSLYILGSATYVTPIMLFQLAIVTPIALTILDLTDPAGKKVSVWRTLSIPFRNPVTVAAILGVLVSALGIQLPSLVLDPLALVAQLAVPLMLIIFGMSLHGLSVRPGIDDRVPTTIAVILKSAIQPVLAWVLAAFVFQLDPFSTFVVTACAILPTGQNVVLYSVRYGVGQGIAQSTAVFTSILAVPLLLGAAWLFG | failed |
| MDGYNIFIVLLAVYIAGLVAIGWYFNKKQKSVTDFWLAGRRIGPSALGFSAAASWLTAGGILAVIGYYMLQGMGSIWAFVAPNILALLIIALLVGKIKNLPAITQPELLEQRYGSAVRWPIALIITVVMILFAVADVTGFSLVLQVFYGVDPLYAAAIVAIAVSLYVTMGGLSAVVWTDVVQFAFLSIFTIAMAFAAVGTVADGGLNTPAISSSELFGNVSYDWWNPLSIGIPMVLIFVFAIIPGWITEQDPWQKVWAAKDAKSARLGMVFGSLMITVVFAACAVIAIAFNNIYPDIAGMGFPAGMAQAEPALLAFVSERFVSAPLIVALSAIGLAAASMSCADTFATSGASCISRDIFQRYIKPDATMKEMLVVNRISVLIIVLAATAGSFVIPNIIDAIHIATFIASASYFFPLMGGLYWKRATKEGAFAGMVVGFVVQVTLVSLDLIKTPPMAANYLESVHPALMSHGVIVGMGLSAIAFFGVSLMTKPSSRINLAPFFEEEAEELAHYEAREIDEKDPTYGAFLKNVDEKVAGERAHLQLNLRASGALSWHELVEKLKSSSPAWVTPTGLDSVYRLTHGDMLACVTVTRGSEERDIWLKAEPRLETVGRQKKELFTAYEELKKVLGQKGVNLDFY | failed |
| MDGYTGSHVVRCALRLAPLVFVRPGELRKAEWKDIDLDGGEWRYTVTKTNTPHIVPLSTQAVEILKELQALTGRSRFVFPGARTNGRPMSDNAILAALRRMGIDKEEMSGHGFRAMARTILDEVLGVRPDFIEHQLAHSVRDPLEHHHHHH | failed |
| MDIKDLMKKWSEQAENMRMFHMQELKENGSEWKKLLQENLKDCKGKKVLDAGCGTGFLAILLAQDGWEVTAIDSSEAMLEEGKKTAEELGLSDKITFLLKDAHSTDFPEHLFDAVVSRHASWLFTAPETVYKEWKRILKPGGIMLNIDANWLKPIWNTDEFEKFKSYEAELVKQYGEFRDYYHDEQMINILKKFPLAYINRPEWDEKMLKKIDFKEIASRLLSKEKYMDAFQAARYKTIPMFVIKAKNIE | failed |
| MDIKKIAQDDKSLGIDESNKDLFQDGILNIALFGVDSREHDNVGRSDSIIIATIDTKHDKIKLTSLMRDSYVEVDGHGKTKLTHAYAYGGPTLALKTINENFGLDIKDYVTVNFDNLAEIIDDLGGVPINIKPYEVKEVNNYAKNVAEIAGREYTPVSEGEQVLNGAQAVGYSRIRYVGDGDYERTERQRNVLDAIIKKLSALKPSEYPETIKKLLPYVETNLTPSKILSIATSVASTGIPPVENMRFPLDGYCKGEMIDGVWYLTFDEAKTKEQIQDYIYKDVNPKLEHHHHHH | failed |
| MDILKLLMVAILIGLTAFFVAVEFAIIKVRSSRIDQLVSEKRRGALAAKKVTSNLDEYLSACQLGITITALGLGWLGEPTIKHLLEPLFLKLNLSPAIASTVSFIIAFAVITFLHVVIGELAPKTFAIQRAEQVSLLLSKPLIYFYRIMYPFIWALNGSARLVTGLFGLHPASEHEVAHSEEELRLILSESYESGEINQREFKYVNNIFEFDNRVAKEIMVPRTEVIGLYEDEPFETHIKIIAQEKYTRYPVFGEDKDEIIGMVNVKDLFIRYIDGNRDEECSITPYTRPVIEVLENIPIHDLLLQMQRKHIPLAVLYDEYGGTAGIVTLEDILEEIVGEIRDEYDEDEHPPIEHISEGCKIVEGKVLISEVNDLFGIHLIADDVDTIGGWIMVQKQIVAEGDIIEKHGFSFKVLEKDMHQIKRVEIKKVEE | failed |
| MDIMNVYKRGNTFQYDFYFKGKRYRKSGYLTKRDAQIAMNIKLNDLLEGYDTDNNLTFVDFYYRWLEITKLDIINDTSYKRYITAIKAFKDCFGNKLISDIDSLSYQKFLKDYGRGHFLNNGQLRPRTSNTVSKMNNCLKQAFESAVEQGYIKKNPAKNAKPFGLKSSQSIDDKFMSITQMKNLIHYVKKNDALSHLCIYILIITGSRFKPVQHLRYEDLNFKKSCIHLNDTKNKYSKRNVKVRIKDLEYIQSVINKHPINQNGYIFHNFINFISYSAINDVLVRFCLKYKYDKYTLKSLRHTHCSYLLAKGISIQYISKRLGHADIHTTLKIYSHLIKEFEDSENSLIEKNLNDLFSD | failed |
| MDKHNEEHIYVAIDLKSFYASVECRERGKDALTTNLVVADPTRTEKTICLAVSPALKAYGIPGRARLFEVVQRVKEVNKLRLSKLMASGHAAGTVERRKKYVTEIDIAENDITESTMAGFDYASYNANLLDAHPEYELTYIVAPPRMALYMDYSTRIYNIYLKYIAPEDISVYSIDEVFMDVTHYLRTYHMTARELASKMIDDVLKDTGITATCGIGTNLYLCKIAMDIMAKHAMPDERGVRIAELNENSYRRKLWDHRPITDFWRVGAGYAKKLEAAGMYTMGDVARCSTGGSNDFYNEEKLYKMFGINAELLIDHAWGYEPVTIADIKAYRPQTNSISSGQVLQEPYDYEKTKLIVREMTDLLVLDLVDKRLVTDQIVLTIGYDIANLSNKADSCLGNNYDHAVNNKGRDSIGGKKGTHRDYTGEITIDRYGRKVPKHAHGTANLGRYTSSTRIIMDAVMELYDRIIDPSLLTRRITVVANRVCDESKVQESEQFEQLDLFTDYQARAKEKKKEDEALSKERKLQEAMISVKKKYGKNAMLKGMNLEEGATTISRNNQIGGHKA | failed |
| MDKIGMTNQITGVISKFDTNIRTIVLNAKDGIFTCNLMIFVKNTDKLTTLMDKLRKVQGLEHHHHHH | failed |
| MDKIHAMQLFIRVADLESFSRAAETLALPKGSVSRQIQALESHLGVRLLHRTTRRVQLTQDGMVYYERAKDLLSNLDELDGMFQHDPASISGRLRVDMPVGFAKKMVIPHLPTFLQQYPGIELELSSSDRQVDVIREGFDCVVRVGALKDSGLIARPLGKLTQINCASPDYLARFGYPQSLEDLADHALIHYASTLGVRPPGFEVMIDGAVRWVKTGGILTVNSTETYQAACIAGLGIIQVPRTGVREALRAGDLIEILPQYRAEPLPVSLIYPHRRNLSRRVNLFMEWLGGLMKAYVD | failed |
| MDKKAMWDRFYTENGSKGQFKNFEWFFGFPSVKDLVLPALQAMSCSHSGPLHILDMGCGTSALGPCIYSTSPCAVRVTCADISPVAVKLMEEHTKSTSTQPCNPSSALVFLELDCTQMTGHFKSRSLDLILDKGTTDALVRSKEGQVKAGQILRQSLQVLRPSGSFLQFSDEDPDARLIWLEREVQGAEVTADVGVQEIGELRGVSYFCYQISPRSRPHS | failed |
